For assay [1], the target named is T1, M.EcoR124INT methyltransferase (UniProt P10484 1-520; P10485 1-215).
T1 construct: HsdM (modification subunit, M) of the Type I restriction-modification system EcoR124I; SNT: residues 1-215 of the parent specificity subunit HsdS (S) of EcoR124I, holding the N-terminal target recognition domain and the central conserved region; Complex formed beforehand (M and SNT), to which HsdR was added; M2 stoichiometry is printed for Type I MTases in general (M2S); 'two modified SNT …
T1 sequence (looked up) 1: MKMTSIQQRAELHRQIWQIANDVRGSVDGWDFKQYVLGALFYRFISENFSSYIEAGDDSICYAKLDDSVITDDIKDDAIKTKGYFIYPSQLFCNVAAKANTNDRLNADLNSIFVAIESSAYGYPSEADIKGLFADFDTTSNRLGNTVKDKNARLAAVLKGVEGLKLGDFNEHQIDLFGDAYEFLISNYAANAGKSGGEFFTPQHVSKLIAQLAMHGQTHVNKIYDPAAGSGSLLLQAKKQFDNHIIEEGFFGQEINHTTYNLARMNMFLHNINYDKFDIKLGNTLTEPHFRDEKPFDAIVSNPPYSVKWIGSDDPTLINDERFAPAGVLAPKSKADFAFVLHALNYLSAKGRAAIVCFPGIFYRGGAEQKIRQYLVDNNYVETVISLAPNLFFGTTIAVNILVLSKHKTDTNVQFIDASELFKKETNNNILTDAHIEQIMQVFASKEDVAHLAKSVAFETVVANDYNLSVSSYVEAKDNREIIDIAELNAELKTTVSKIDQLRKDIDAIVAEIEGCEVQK
T1 sequence (looked up) 2: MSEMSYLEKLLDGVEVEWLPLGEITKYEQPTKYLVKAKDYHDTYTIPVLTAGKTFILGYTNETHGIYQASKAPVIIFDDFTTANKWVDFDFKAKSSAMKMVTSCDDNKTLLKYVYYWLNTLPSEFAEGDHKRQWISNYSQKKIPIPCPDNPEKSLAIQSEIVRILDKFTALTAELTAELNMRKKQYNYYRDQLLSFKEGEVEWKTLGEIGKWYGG
As to the kind of experiment: small-angle neutron scattering; ENase formed at 2:1 molar ratio HsdR:MTase, ca. 3 uM, buffer A; fully protonated complex in H2O, and complex with deuterated HsdR and protonated MTase in 40% D2O (MTase matched out). To be noted: both partners purified.

The target in assay [2] is T1, M.EcoR124INT methyltransferase. In words: native gel or EMSA; purified HsdR mixed with MTase at 1:1 and 2:1 molar ratios, then with a 30 bp DNA duplex with the recognition sequence (1:1 enzyme:DNA); 2 uM MTase and DNA, 2 or 4 uM HsdR; 6% non-denaturing polyacrylamide gel, 150 V, 2.5 h, 0.25x TBE; no difference with 10 mM MgCl2. To be noted: both partners purified.

B1: HsdR from EcoR124I (enzyme, UniProt P10486 1-1038, looked up)
chain: MTHQTHTIAESNNFIVLDKYIKAEPTGDSYQSESDLERELIQDLRNQGYEFISVKSQSAMLANVREQLQNLNGVVFNDSEWRRFTEQYLDNPSDGILDKTRKIHIDYICDFIFDDERLENIYLIDKKNLMRNKVQIIQQFEQAGSHANRYDVTILVNGLPLVQIELKKRGVAIREAFNQIHRYSKESFNSENSLFKYLQLFVISNGTDTRYFANTTKRDKNSFDFTMNWAKSDNTLIKDLKDFTATCFQKHTLLNVLVNYSVFDSSQTLLVMRPYQIAATERILWKIKSSFTAKNWSKPESGGYIWHTTGSGKTLTSFKAARLATELDFIDKVFFVVDRKDLDYQTMKEYQRFSPDSVNGSENTAGLKRNLDKDDNKIIVTTIQKLNNLMKAESDLPVYNQQVVFIFDECHRSQFGEAQKNLKKKFKRYYQFGFTGTPIFPENALGSETTASVFGRELHSYVITDAIRDEKVLKFKVDYNDVRPQFKSLETETDEKKLSAAENQQAFLHPMRIQEITQYILNNFRQKTHRTFPGSKGFNAMLAVSSVDAAKAYYATFKRLQEEAANKSATYKPLRIATIFSFAANEEQNAIGEISDETFDTSAMDSSAKEFLDAAIREYNSHFKTNFSTDSNGFQNYYRDLAQRVKNQDIDLLIVVGMFLTGFDAPTLNTLFVDKNLRYHGLMQAFSRTNRIYDATKTFGNIVTFRDLERSTIDAITLFGDKNTKNVVLEKSYTEYMEGFTDAATGEAKRGFMTVVSELEQRFPDPTSIESEKEKKDFVKLFGEYLRAENILQNYDEFATLKALQQIDLSDPVAVEKFKAEHYVDDEKFAELQTIRLPADRKIQDYRSAYNDIRDWQRREKEAEKKEKSTTDWDDVVFEVDLLKSQEINLDYILGLIFEHNRQNKGKGEMIEEVKRLIRSSLGNRAKEGLVVDFIQQTNLDDLPDKASIIDAFFTFAQREQQREAEALIKEENLNEDAAKRYIRTSLKREYATENGTELNETLPKLSPLNPQYKTKKQAVFQKIVSFIEKFKGVGGKI
notes: HsdR (restriction / motor subunit) of the Type I restriction-modification system EcoR124I; about 120 kDa as printed; For one SANS sample the same protein was made about 75% deuterated (85% D2O minimal medium); also called R subunit; motor subunit; source: expressed and purified as described previously [24]; deuterated form from BL21 (DE3) with the expression plasmid pBGSR124
For orientation: stoichiometry N means a count of units in the complex or per binding partner. Take B1: the “stoichiometry N” value in assay [1] was found to be 2 HsdR per complex; in assay [2] it was 2 HsdR per MTase.

These data come from publication PMC3320862, “Structural and Functional Analysis of the Symmetrical Type I Restriction Endonuclease R.EcoR124INT” (PLOS One, 2012).
